These results are taken from patent publication US20110269817A1 (University of California, published 2011).

For this assay, the target named is Myc-tagged PER2 (transfected in JEG3 cells) (UniProt O54943 1-1257, limits assumed). The assay is described as follows: coimmunoprecipitation with FLAG antibody from cotransfected JEG3 cells, Western with anti-Myc (FIG. 5A). Here is the method:
(A) JEG3 cells were cotransfected with a series of expression vectors as described. Flag-tagged SIRT1 proteins were immunoprecipitated by FLAG antibody, and abundance of coimmunoprecipitated proteins was determined by western blotting using anti-Myc antibody (top right panel) and anti-SIRT1 antibody (bottom right panel). Left panels show the immunoblotting results of total cell lysates as an input.

Myc-tagged PER2 (transfected in JEG3 cells), sequence (O54943 whole entry): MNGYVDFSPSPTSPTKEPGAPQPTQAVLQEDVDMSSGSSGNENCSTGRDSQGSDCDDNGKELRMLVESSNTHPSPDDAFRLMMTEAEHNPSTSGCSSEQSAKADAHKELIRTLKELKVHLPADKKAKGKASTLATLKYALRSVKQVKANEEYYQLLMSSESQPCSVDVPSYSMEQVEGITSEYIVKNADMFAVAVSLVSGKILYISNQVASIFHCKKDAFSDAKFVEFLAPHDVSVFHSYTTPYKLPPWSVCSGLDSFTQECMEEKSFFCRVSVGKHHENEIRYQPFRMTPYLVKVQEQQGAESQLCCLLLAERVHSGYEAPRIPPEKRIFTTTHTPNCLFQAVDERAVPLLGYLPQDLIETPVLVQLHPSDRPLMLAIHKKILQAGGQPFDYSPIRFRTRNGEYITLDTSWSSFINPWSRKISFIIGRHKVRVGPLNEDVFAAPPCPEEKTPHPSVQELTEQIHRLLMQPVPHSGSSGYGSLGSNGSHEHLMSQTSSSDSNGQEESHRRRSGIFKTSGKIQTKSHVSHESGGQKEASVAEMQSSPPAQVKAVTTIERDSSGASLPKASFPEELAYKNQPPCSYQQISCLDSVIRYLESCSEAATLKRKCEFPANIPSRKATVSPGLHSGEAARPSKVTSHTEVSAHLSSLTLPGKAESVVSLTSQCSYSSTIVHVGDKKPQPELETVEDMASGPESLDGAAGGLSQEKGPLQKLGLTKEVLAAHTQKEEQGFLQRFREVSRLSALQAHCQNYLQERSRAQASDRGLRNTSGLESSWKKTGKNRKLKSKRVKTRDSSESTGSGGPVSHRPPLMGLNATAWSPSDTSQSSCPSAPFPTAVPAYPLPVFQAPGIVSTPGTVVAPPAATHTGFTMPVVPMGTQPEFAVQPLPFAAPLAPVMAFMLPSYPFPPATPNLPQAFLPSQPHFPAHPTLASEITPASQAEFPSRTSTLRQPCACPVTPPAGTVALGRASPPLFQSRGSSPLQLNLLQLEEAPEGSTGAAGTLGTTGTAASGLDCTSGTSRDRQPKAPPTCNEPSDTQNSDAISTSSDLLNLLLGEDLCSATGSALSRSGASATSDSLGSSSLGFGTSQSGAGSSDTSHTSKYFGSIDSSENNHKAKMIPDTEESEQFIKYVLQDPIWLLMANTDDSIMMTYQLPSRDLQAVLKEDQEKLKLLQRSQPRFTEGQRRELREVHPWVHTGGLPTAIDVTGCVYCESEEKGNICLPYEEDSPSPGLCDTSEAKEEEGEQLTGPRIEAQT

B1: Flag-tagged SIRT1 (transfected in JEG3 cells) (enzyme, mouse, UniProt Q923E4 1-737, looked up, not shown: small tags and cut ends)
chain: MADEVALALQAAGSPSAAAAMEAASQPADEPLRKRPRRDGPGLGRSPGEPSAAVAPAAAGCEAASAAAPAALWREAAGAAASAEREAPATAVAGDGDNGSGLRREPRAADDFDDDEGEEEDEAAAAAAAAAIGYRDNLLLTDGLLTNGFHSCESDDDDRTSHASSSDWTPRPRIGPYTFVQQHLMIGTDPRTILKDLLPETIPPPELDDMTLWQIVINILSEPPKRKKRKDINTIEDAVKLLQECKKIIVLTGAGVSVSCGIPDFRSRDGIYARLAVDFPDLPDPQAMFDIEYFRKDPRPFFKFAKEIYPGQFQPSLCHKFIALSDKEGKLLRNYTQNIDTLEQVAGIQRILQCHGSFATASCLICKYKVDCEAVRGDIFNQVVPRCPRCPADEPLAIMKPEIVFFGENLPEQFHRAMKYDKDEVDLLIVIGSSLKVRPVALIPSSIPHEVPQILINREPLPHLHFDVELLGDCDVIINELCHRLGGEYAKLCCNPVKLSEITEKPPRPQKELVHLSELPPTPLHISEDSSSPERTVPQDSSVIATLVDQATNNNVNDLEVSESSCVEEKPQEVQTSRNVENINVENPDFKAVGSSTADKNERTSVAETVRKCWPNRLAKEQISKRLEGNQYLFVPPNRYIFHGAEVYSDSEDDVLSSSSCGSNSDSGTCQSPSLEEPLEDESEIEEFYNGLEDDTERPECAGGSGFGADGGDQEVVNEAIATRQELTDVNYPSDKS
notes: The plasmid list holds a mouse N-terminal FLAG construct and also Flag-hSIRT1/pECE, so the species used in these experiments is not certain; also called Flag-SIRT1
Consider B1, for which the binding result is “no binding”.
